# Article PMC2919377, “A Nuclear Family A DNA Polymerase from Entamoeba histolytica Bypasses Thymine Glycol” (PLoS Neglected Tropical Diseases, 2010)
# B1: EhDNApolA (Entamoeba histolytica HM-1:IMSS) (protein)
# chain: MEKTPRNSVDDLLMLFEDVKDNNKPVDYTKLESEETKKTENKERRKSLSINVNDEIPEKRKRKSIKQEGTPQPKVGAVFEIQYQHLPNKIDISELKELLEKIPKMEGKIMFNEKNLEQSIVINCTNNGIHALIGNSYVVLKKELLPEIINSRRLIIVYNLMEEIKNYRNNIKCILENFNTNNTIFDTYIGASTIDPGSVDGKTFSQICLVYEVIINKSTIEERLKQTRRLAVKEVEVMNNDNMIKVFQEQEMIIDGVLIEMNYCNEFKIDNKLLNEQRKKLIEEQHKIEMETKKIIGRTINLSSPEQVKKELIRFNIGIDGIKKKATTDKKILSQSDHPFAKLVLEYRKISKLLSGVIEQIRKCCIKSGDEYFIRTTWSQTAIVTGRIQSKSPNLQQIPKQSFSLPQCLIIPRDLFITHNNNTFVAIDYNQIELRILADFTKDHHLIEFFKSNTDVHRLIAAHWLKKNVNDITDDERRKAKTIVYGCIYGIGPFSLADQLHVSLDESKAFLESFLDQFPAFKKWKEETITNASTTGFVHTINNRRRRINNLTDCNDKKTVAESKRIAVNSPIQGTAADIIKMCMIEIFKKLHSSWVGVQLLLNIHDEIVLEVPDHLLDEVCVTLKHLMEHIVKLEVPLVVTVETGKKWGSLHPYNLN
# notes: full-length ORF, 657 aa, about 75 kDa, N-terminal 6-His tag (pCOLD I), expressed in E. coli BL21 DE3-Rosetta II; Ni-NTA and phosphocellulose
# Assays:
# Assay in all cases: purified protein
# Assay type in all cases: biochemical, Entamoeba histolytica
# Settings in all cases: opposite cognate template base, primer-template DNA, optimised buffer (Mg2+ optimum 2.5 mM, pH optimum 7.5), 37 °C
# purified protein [1] = substrate: Nc1ccn([C@H]2C[C@H](O)[C@@H](COP(=O)(O)OP(=O)(O)OP(=O)(O)O)O2)c(=O)n1
# purified protein [2] = substrate: Nc1nc2c(ncn2[C@H]2C[C@H](O)[C@@H](COP(=O)(O)OP(=O)(O)OP(=O)(O)O)O2)c(=O)[nH]1
# purified protein [3] = substrate: Cc1cn([C@H]2C[C@H](O)[C@@H](COP(=O)(O)OP(=O)(O)OP(=O)(O)O)O2)c(=O)[nH]c1=O
# purified protein [4] = substrate: Nc1ncnc2c1ncn2[C@H]1C[C@H](O)[C@@H](COP(=O)(O)OP(=O)(O)OP(=O)(O)O)O1
protein,measurement,setting,value
B1,Km,purified protein [1],2.1 ± 0.3 µM
same,Vmax,purified protein [1],0.0032 µmol/min
same,Km,purified protein [2],1.56 ± 0.2 µM
same,Vmax,purified protein [2],0.0035 µmol/min
same,Km,purified protein [3],1.49 ± 0.3 µM
same,Vmax,purified protein [3],0.0029 µmol/min
same,Km,purified protein [4],2.3 ± 0.2 µM
same,Vmax,purified protein [4],0.0033 µmol/min
